Experimental findings from publication PMC9529537 (The Innovation, 2022) are described below.

The test has as its target yellow fever virus soluble envelope (E) protein (Yellow fever virus, strain CNYF01/2016 …). Description: crystal structure.

B1: YD73 Fab (Fab, V domains shown)
VH: QVQLVQSGAEVKKPGASVKVSCKASGYTFIAYGISWVRQAPGQGLEWMGWISAHNGNTNYAQKFQGRVTVTTDTTTRTAFMELRNLRSDDTAVYYCARAPWEYNYRSSGYYDSPYWGQGTLVTVSS
VL: EIVLTQSPGTLSLSPGERATLSCRASQSVVSTYLAWYQQKPGQAPRLLIYDTSTRATGIPDRFSGSGSGTDFTLTISRLEPEDFAVYYCQHYDSSPPWTFGQGTKVEIK
In the case of B1, the binding result is “binds”.

B2: YD6 Fab (Fab, V domains shown)
VH: EVQLVESGGGLVKPGGSLRLSCAASGFIFSDYYMMWIRQAPGKGLEWISYISSSGSQIYYTESVKGRFTISRDNGKNLLYLQMNSLRGEDTALYYCATETGWRIDTWGQGTLVTVSS
VL: QAVLTQPASVSGSPGQSITISCTGTGSNIETYNLVSWYQRHPGKAPKLILYEVSERPSGVSNRFSGSKSGNTASLTISGLQAEDEADYFCCSYADTNIFWVFGGGTHLTVL
As to B2, the binding result was “binds”.

B3: YD6 scFv (scFv, V domains shown)
VH: EVQLVESGGGLVKPGGSLRLSCAASGFIFSDYYMMWIRQAPGKGLEWISYISSSGSQIYYTESVKGRFTISRDNGKNLLYLQMNSLRGEDTALYYCATETGWRIDTWGQGTLVTVSS
VL: QAVLTQPASVSGSPGQSITISCTGTGSNIETYNLVSWYQRHPGKAPKLILYEVSERPSGVSNRFSGSKSGNTASLTISGLQAEDEADYFCCSYADTNIFWVFGGGTHLTVL
In the case of B3, the binding result is on record as “binds”.
